Laboratory results from US20060024698, “Method to protect DNA ends” (published 2006).

T1: DdrA (DR0423) (Deinococcus radiodurans R1, UniProt Q9RX92 SEQ:1-208)
T1 sequence: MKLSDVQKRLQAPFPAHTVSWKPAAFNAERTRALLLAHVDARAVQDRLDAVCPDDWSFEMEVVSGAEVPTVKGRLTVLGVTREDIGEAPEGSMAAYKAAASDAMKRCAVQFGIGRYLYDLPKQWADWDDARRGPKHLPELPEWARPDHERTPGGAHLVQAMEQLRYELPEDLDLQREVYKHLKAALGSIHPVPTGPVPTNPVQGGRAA

B1: 50 nt ssDNA (ssDNA)
DNA: GGCCTCGCGGTAGCTGAGCTCGGAGCGCACGATTCGCACTGCTGATGTTC
B2: 30 nt ssDNA (ssDNA)
DNA: GCGTGGGTAATTGTGCTTCAATGGACTGAC
B3: 18 nt ssDNA (ssDNA)
DNA: AAGCACAATTACCCACGC
B4: hairpin with 3' extension (oligo A) (structured_DNA)
DNA: TTAACGACCGTCGACCTGCAGGTCGACGGTCGTTAACGTCTCTCAGATTGT
modifications: 3'-terminal ddA added

What was measured:
DdrA (DR0423) [1] = target: T1, DdrA (DR0423); experiment: FP; KD,app; 1.0 nM DNA, 30 C, 30 min; conditions: tags: untagged, expressed in E. coli from pEAW298; chain copies: 8-10 subunit oligomer in solution by gel filtration (stated); label: 3' fluorescent tag
Protocol: FIG. 9 is a graph of fluorescence anisotropy data for DdrA binding to single-stranded DNA. Increasing concentrations of DdrA protein were incubated with 3′-fluorescently tagged DNA (1.0 nM) at 30° C. for 30 minutes. Samples were analyzed using the Beacons 2000 Fluorescence Polarization System and a curve was generated suing CURVE EXPERT 1.3 software. The K_{D,app} for each substrate is the concentration of DdrA when 50% of the DNA is bound as determined by the generated curve fit.

DdrA (DR0423) [2] = target: T1, DdrA (DR0423); experiment: EMSA; 4 uM DdrA; not disrupted by 1000-2000 fold excess of 5'-extension oligo; conditions: tags: untagged, expressed in E. coli from pEAW298; chain copies: 8-10 subunit oligomer in solution by gel filtration (stated); label: 3'-32P ddATP; 18 bp hairpin with 16 nt 3' single-strand extension
Protocol: Four sets of EMSA assays are presented, with the gels and electrophoresis conditions carefully matched. DNA substrate concentrations are 0.7 nM in each case, reported as total molecules. In each set, the first three lanes have show the effects of the indicated concentration of DdrA protein. […] In set D, the sixth and seventh lanes are identical to the third lane (with 4 μM DdrA protein), except that they have been challenged with a 1000-fold or 2000-fold excess of unlabeled oligo with a 5′ extension, respectively. The unlabeled challenge oligo is the same as that used in reaction set C. (FIG. 7A) Single-strand oligonucleotides (51 nucleotides in length), labelled on the 5′ end. (FIG. 7B) 5′ end-labeled duplex DNA fragments (51 bp). (FIG. 7C) 5′-end-labelled oligonucleotide, with a self-complementary sequence leading to the formation of an 18 bp hairpin and a 15 nucleotide 5′ single strand extension. (FIG. 7D) 3′ end-labelled oligonucleotide, with a self-complementary sequence leading to the formation of an 18 bp hairpin and a 16 nucleotide 3′ single strand extension. The sequences of the single strand extensions in the oligos used in sets C and D are matched, except that an extra adenosine residue has been added to the oligo used in set D during the labelling process.

| Binder | Kd (DdrA (DR0423) [1]) [nM] | binding result (DdrA (DR0423) [2]) |
| --- | --- | --- |
| B1 | 118 | – |
| B2 | 406 | – |
| B3 | 640 | – |
| B4 | – | binds |
